Patent publication EP3971294A1

Assays:
Assay in all cases: cell-based or functional assay
[1] = target: CenNLS^NLuc: Centauri fragment of NanoLuc, HA tag, triple SV40 NLS
[2] = target: CenNup214^NLuc: Centauri fragment of NanoLuc, HA tag, full-length Nup214 (UniProt P35658)
[3] = target: CenNLS^GFP: Centauri fragment of superfolder GFP, HA tag, triple SV40 NLS

UniProt P35658, sequence (P35658 whole entry, the tested form may be a part): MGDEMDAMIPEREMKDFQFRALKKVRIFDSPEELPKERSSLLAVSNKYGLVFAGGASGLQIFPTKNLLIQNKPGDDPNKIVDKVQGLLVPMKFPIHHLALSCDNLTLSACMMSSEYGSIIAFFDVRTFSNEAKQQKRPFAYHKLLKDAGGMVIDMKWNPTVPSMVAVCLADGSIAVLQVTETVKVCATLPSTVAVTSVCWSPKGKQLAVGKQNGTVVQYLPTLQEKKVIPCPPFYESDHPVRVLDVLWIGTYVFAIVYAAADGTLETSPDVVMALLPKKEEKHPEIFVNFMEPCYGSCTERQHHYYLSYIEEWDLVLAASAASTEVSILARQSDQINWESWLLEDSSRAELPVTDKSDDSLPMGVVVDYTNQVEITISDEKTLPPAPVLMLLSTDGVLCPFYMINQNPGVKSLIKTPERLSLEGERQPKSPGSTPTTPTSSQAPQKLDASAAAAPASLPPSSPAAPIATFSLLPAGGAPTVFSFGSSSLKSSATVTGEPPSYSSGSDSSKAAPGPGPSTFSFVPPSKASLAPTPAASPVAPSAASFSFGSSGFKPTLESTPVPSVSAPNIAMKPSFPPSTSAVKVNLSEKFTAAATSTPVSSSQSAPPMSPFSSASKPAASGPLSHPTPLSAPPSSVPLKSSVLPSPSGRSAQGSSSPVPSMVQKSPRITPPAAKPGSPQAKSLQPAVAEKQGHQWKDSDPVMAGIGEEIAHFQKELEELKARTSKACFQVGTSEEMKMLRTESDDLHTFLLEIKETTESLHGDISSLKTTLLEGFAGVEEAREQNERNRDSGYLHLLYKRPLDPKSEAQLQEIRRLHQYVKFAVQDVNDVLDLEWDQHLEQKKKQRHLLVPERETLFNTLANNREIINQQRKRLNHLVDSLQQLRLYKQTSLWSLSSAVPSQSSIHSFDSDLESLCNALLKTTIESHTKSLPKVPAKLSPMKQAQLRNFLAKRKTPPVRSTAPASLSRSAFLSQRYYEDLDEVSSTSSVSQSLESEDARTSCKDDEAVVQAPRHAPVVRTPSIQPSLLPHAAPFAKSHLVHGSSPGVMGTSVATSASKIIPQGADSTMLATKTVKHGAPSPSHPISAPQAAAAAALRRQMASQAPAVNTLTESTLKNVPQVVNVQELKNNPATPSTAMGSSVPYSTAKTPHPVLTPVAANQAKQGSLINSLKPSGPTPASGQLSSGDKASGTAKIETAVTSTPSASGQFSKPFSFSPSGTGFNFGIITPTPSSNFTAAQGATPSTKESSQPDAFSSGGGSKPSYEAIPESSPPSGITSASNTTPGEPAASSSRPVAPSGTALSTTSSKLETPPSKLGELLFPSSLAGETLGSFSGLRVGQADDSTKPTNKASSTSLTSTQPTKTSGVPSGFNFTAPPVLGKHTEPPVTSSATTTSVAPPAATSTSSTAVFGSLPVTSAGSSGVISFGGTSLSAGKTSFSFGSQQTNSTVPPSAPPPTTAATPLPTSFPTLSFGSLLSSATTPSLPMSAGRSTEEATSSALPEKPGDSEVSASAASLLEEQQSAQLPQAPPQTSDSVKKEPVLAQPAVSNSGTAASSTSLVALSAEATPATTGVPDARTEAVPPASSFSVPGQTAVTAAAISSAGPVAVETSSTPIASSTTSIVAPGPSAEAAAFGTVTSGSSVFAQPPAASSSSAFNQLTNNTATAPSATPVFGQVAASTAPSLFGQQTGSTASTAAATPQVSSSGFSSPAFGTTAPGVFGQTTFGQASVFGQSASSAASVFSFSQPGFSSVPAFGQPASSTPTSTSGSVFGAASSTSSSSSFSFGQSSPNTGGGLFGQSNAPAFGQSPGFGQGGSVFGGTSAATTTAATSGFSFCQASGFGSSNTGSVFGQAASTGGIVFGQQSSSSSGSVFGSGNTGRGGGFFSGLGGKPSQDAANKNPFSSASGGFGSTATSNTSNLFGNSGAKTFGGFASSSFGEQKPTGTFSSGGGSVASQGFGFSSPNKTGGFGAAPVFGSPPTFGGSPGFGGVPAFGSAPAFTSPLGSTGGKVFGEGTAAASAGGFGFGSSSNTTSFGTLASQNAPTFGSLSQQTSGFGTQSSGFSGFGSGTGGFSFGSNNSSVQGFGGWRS

Substance: HIV-1 LAI integrase (IN) with α^NLuc fused at its C-terminus, as carried by αHIV^NLuc (from UniProt P03367 1160-1447)
- fold increase in emitted luminescence signal (plate luminometry) [1]: 5 to 200 fold
- fold increase in NLuc signal [2]: 10 fold

Substance: HIV-1 LAI integrase D116I mutant with α^NLuc fused at its C-terminus, as carried by αHIV-D116I^NLuc (from UniProt P03367 1160-1447)
- fold increase in NLuc compared to infection in the presence of Nevirapine [1]: 10 fold

Substance: IRF3α-3xFLAG: IRF3 fused to the α fragment of NanoLuc and a 3xFLAG tag (from UniProt Q14653 1-427)
- αCentauri complementation, luminescence fold above uninfected controls (SeV infection, 6 h) [1]: 3 to 6 fold

Substance: HIV-1 LAI integrase (IN) with α^GFP fused at its C-terminus, as carried by αHIV^GFP (from UniProt P03367 1160-1447)
- fold increase in fluorescence (flow cytometry, 48 hpi) [3]: 5 to 10 fold
